Measured values published in US8287851B2, “Use of interleukin 17E for the treatment of cancer” (Lorus Therapeutics Inc., priority 2005, dated 2012).

T1: murine IL-17E receptor (Mus musculus, UniProt Q9JIP3)
T1 construct: murine IL-17E receptor present on the pre-B cell line 70Z/3; endogenous in cells; host or cells: murine pre-B cell line 70Z/3
T1 sequence (Q9JIP3 18-499): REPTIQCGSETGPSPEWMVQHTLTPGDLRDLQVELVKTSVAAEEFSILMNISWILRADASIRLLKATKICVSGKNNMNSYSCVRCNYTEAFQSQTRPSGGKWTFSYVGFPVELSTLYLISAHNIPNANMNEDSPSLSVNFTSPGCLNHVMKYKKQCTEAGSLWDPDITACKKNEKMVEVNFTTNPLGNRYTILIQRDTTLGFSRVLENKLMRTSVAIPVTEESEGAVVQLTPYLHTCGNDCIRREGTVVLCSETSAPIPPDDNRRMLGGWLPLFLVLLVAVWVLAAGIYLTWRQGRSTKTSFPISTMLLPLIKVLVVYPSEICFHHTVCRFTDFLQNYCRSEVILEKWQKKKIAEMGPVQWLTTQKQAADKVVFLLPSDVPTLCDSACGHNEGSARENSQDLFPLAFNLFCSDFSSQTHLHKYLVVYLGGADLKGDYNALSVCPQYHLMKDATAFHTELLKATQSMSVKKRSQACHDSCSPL


What was measured:
[1] = biological target: T1, murine IL-17E receptor; assay: FACS binding to IL-17E receptor on pre-B cell line 70Z/3; settings: 1 μg/10^6 cells, 30 minutes at 4° C.
Experimental: The ability of human and murine interleukin 17E to bind to the IL-17E receptor was examined using the murine pre-B cell line 70Z/3 (Paige, C. J., et al. (1981) Nature 292:631-3).
1×10^6 70Z/3 cells/sample were incubated with either murine or human IL-17E (1 μg/10^6 cells) for 30 minutes at 4° C. After washing twice, cells that had been incubated with murine IL-17E were incubated with biotin-conjugated goat anti-mouse IL17E and phycoerythrin (PE)-Cy5.5-conjugated streptavidin. Cells that had been incubated with human IL-17E were incubated with biotin-conjugated goat anti-human IL17E-biotin and phycoerythrin (PE)-Cy5.5-conjugated streptavidin. As negative controls, cells were stained with antibodies as described without preincubation with human or murine IL-17E. Samples were then fixed with 0.5% paraformaldehyde prior to FACS analysis.

[2] = system: protein tyrosine kinase Lyn; assay: Lyn phosphorylation in B cell lymphoma cell line WEHI-231 (Western blot); assay type: cell-based; settings: 0.21 μg per 1.5×10^6 WEHI-231 cells, 0, 2, 5 minutes
Source text: The effect of IL-17E on activation of signaling pathways in B cells was examined using the B cell lymphoma cell line WEHI-231 (Lanier L. L., et al. (1981) J. Immunol. 126:626-31). Specifically, the activation status of the protein tyrosine kinase Lyn and the B cell linker protein BLNK (Tsubata, T., et al., (2001) Int Rev Immunol 20:675-8) were examined. An increased level of the phosphorylated forms of these proteins is indicative of activation.
A total of 1.5×10^6 cells per sample were stimulated in vitro with 0.21 μg of either human IL-17E or murine IL17E at 37° C. Cells were lysed at time points t=0, 2, and 5 minutes in lysis buffer for 30 minutes on ice, followed by centrifugation for 10 minutes. Samples containing approximately 25 μg of protein were separated by SDS-PAGE, followed by transfer to membranes for Western blotting.
For detection of Lyn, Western blots were incubated with rabbit anti-Lyn antibodies, followed by horseradish peroxidase (HRP)-conjugated anti-rabbit antibodies. All blots were exposed to autoradiography film and developed to detect proteins of interest by chemiluminescence.
(§1) To assess equivalence in protein loading among lanes in both experiments, blots were stripped of antibodies and incubated with mouse anti-GAPDH antibodies and HRP-conjugated anti-mouse antibodies, followed by chemiluminescence-based detection.

[3] = system: IkappaB alpha (NF-kappaB pathway); assay: NF-kappaB pathway activation: IkappaB alpha phosphorylation in WEHI-231 cells; assay type: cell-based; settings: 0.7 μg per 5×10^6 WEHI-231 cells, 0, 2, 5 minutes
Experimental: The ability of both human and murine interleukin 17E to activate proteins in the Nuclear Factor-kappa B (NF-kappaB) pathway was examined using the B cell lymphoma cell line WEHI-231. […] Activation of the NK-kappaB pathway was assessed by increased phosphorylation of the protein IkappaB alpha. […] The activation of NF-kappa B is associated with the phosphorylation of IkappaB alpha in response to certain stimuli.
A total 5×10^6 cells per sample were stimulated with 0.7 μg of either human IL-17E (hIL-17E) or murine IL-17E (mIL-17E) at 37° C. Cells were lysed at time points t=0, 2, and 5 minutes in lysis buffer for 30 minutes on ice, followed by centrifugation for 10 minutes. Samples containing approximately 40 μg of protein were separated by SDS-PAGE, followed by transfer to membranes for Western blotting.
Blots were incubated with rabbit anti-phospho-IkappaB-alpha antibodies, followed by horesradish peroxidase (HRP)-conjugated anti-rabbit antibodies. Blots were exposed to autoradiography film and developed to detect phosphorylated IkB (at approximately 41 kD) by chemiluminescence.
as §1

| Molecule | binding to murine IL-17E receptor on 70Z/3 cells (FACS) [1] | levels of phosphorylated Lyn protein [2] | levels of phosphorylated IkappaB alpha (p-IkB-α) [3] |
| --- | --- | --- | --- |
| human IL-17E: Recombinant human IL-17E from PeproTech; two 145 amino acid chains, predominant form starting at Tyr 33 of GenBank AAG40848 (protein, listed as Homo sapiens) YSHWPSCCPSKGQDTSEELLRWSTVPVPPLEPARPNRHPESCRASEDGPLNSRAISPWRYELDRDLNRLPQDLYHARCLCPHCVSLQTGSHMDPRGNSELLYHNQTVFYRRPCHGEKGTHKGYCLERRLYRVSLACVCVRPRVMG | bound | increased | increased |
| murine IL-17E: Murine IL-17E from R&D Systems; predominant form starting at Val 17 of GenBank NP 542767 (protein) VSLRIQEGCSHLPSCCPSKEQEPPEEWLKWSSASVSPPEPLSHTHHAESCRASKDGPLNSRAISPWSYELDRDLNRVPQDLYHARCLCPHCVSLQTGSHMDPLGNSVPLYHNQTVFYRRPCHGEEGTHRRYCLERRLYRVSLACVCVRPRVMA | bound | increased | increased |
